Data taken from article PMC7360973.

T1: Human heat shock transcription factor 1 (Hsf1), wild type (human), Q00613
T1 chain: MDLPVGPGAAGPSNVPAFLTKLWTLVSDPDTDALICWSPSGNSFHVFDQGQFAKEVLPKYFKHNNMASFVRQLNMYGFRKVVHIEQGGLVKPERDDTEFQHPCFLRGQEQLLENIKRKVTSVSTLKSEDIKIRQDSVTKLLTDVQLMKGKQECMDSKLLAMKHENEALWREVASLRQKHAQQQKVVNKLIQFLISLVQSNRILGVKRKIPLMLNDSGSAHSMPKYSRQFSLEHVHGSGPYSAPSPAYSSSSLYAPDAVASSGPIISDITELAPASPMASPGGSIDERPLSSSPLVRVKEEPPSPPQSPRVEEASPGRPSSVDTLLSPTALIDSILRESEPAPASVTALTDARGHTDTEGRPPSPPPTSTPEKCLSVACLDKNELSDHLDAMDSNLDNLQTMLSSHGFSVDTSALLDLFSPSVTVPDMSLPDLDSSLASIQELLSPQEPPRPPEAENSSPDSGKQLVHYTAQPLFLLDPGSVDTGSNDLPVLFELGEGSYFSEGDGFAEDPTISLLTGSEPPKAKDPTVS

T2: Hsf1 wild type expressed from pIRES‐HSF1_hrGFP in cells (human), Q00613
T2 chain: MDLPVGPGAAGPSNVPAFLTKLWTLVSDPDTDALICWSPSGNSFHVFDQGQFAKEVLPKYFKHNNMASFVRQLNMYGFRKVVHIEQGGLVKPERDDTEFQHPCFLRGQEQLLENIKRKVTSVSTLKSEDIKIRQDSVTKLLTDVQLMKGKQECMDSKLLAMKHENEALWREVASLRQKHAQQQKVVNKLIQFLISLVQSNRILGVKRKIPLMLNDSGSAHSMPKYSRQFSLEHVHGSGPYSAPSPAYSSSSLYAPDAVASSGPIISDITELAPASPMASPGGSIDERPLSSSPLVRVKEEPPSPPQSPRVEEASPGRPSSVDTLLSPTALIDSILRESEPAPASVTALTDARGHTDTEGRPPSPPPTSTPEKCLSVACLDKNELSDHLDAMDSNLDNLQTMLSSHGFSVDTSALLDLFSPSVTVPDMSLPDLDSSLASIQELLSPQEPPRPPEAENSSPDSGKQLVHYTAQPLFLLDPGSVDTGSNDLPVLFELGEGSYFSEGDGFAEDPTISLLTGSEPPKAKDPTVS


What was measured:
Details in all cases: remark: other sources report otherwise
[1] = target: T1, Human heat shock transcription factor 1 …; assay: SEC + native gel or EMSA; trimer-to-monomer ratio of freshly purified Hsf1 in the absence of heat shock, by gel filtration (Superdex 200) and BN-PAGE
[2] = target: T1, Human heat shock transcription factor 1 …; assay: native gel or EMSA; blue-native PAGE (8% gel, on ice) of purified Hsf1 wild type or variants, also after 10 min at 4–42°C (5 μM protein); Coomassie stain or immunoblot with Hsf1 antiserum
[3] = target: T2, Hsf1 wild type expressed from …; assay: native gel or EMSA; blue-native PAGE of lysates (15 μg total protein) of transfected HSF1−/− MEFs, immunoblot with Hsf1 antiserum

stoichiometry N [1]	stoichiometry N [2]	stoichiometry N [3]	Binder
3	3	–	Human heat shock transcription factor 1 (Hsf1), wild type, Q00613 1-529 (natural protein) MDLPVGPGAAGPSNVPAFLTKLWTLVSDPDTDALICWSPSGNSFHVFDQGQFAKEVLPKYFKHNNMASFVRQLNMYGFRKVVHIEQGGLVKPERDDTEFQHPCFLRGQEQLLENIKRKVTSVSTLKSEDIKIRQDSVTKLLTDVQLMKGKQECMDSKLLAMKHENEALWREVASLRQKHAQQQKVVNKLIQFLISLVQSNRILGVKRKIPLMLNDSGSAHSMPKYSRQFSLEHVHGSGPYSAPSPAYSSSSLYAPDAVASSGPIISDITELAPASPMASPGGSIDERPLSSSPLVRVKEEPPSPPQSPRVEEASPGRPSSVDTLLSPTALIDSILRESEPAPASVTALTDARGHTDTEGRPPSPPPTSTPEKCLSVACLDKNELSDHLDAMDSNLDNLQTMLSSHGFSVDTSALLDLFSPSVTVPDMSLPDLDSSLASIQELLSPQEPPRPPEAENSSPDSGKQLVHYTAQPLFLLDPGSVDTGSNDLPVLFELGEGSYFSEGDGFAEDPTISLLTGSEPPKAKDPTVS
–	–	3	Hsf1 wild type expressed from pIRES‐HSF1_hrGFP in cells, Q00613 1-529 (natural protein) MDLPVGPGAAGPSNVPAFLTKLWTLVSDPDTDALICWSPSGNSFHVFDQGQFAKEVLPKYFKHNNMASFVRQLNMYGFRKVVHIEQGGLVKPERDDTEFQHPCFLRGQEQLLENIKRKVTSVSTLKSEDIKIRQDSVTKLLTDVQLMKGKQECMDSKLLAMKHENEALWREVASLRQKHAQQQKVVNKLIQFLISLVQSNRILGVKRKIPLMLNDSGSAHSMPKYSRQFSLEHVHGSGPYSAPSPAYSSSSLYAPDAVASSGPIISDITELAPASPMASPGGSIDERPLSSSPLVRVKEEPPSPPQSPRVEEASPGRPSSVDTLLSPTALIDSILRESEPAPASVTALTDARGHTDTEGRPPSPPPTSTPEKCLSVACLDKNELSDHLDAMDSNLDNLQTMLSSHGFSVDTSALLDLFSPSVTVPDMSLPDLDSSLASIQELLSPQEPPRPPEAENSSPDSGKQLVHYTAQPLFLLDPGSVDTGSNDLPVLFELGEGSYFSEGDGFAEDPTISLLTGSEPPKAKDPTVS
